Experimental data reported in patent US20220372463A1.

Target: Streptococcus pyogenes Cas9 endonuclease (Streptococcus pyogenes) (UniProt Q99ZW2)
Assay: cell-based or functional assay

Row | Substance | fold decrease of the transition rate to the inhibited state relative to CascAID with wild-type AcrIIA4 | kact (constant activation parameter for all CascAID variants; best fit of the ODE model to editing data) | γ4 (inhibitor strength: fold-change relative to the inhibition rate of CascAID wt; best fit of the ODE model) | kinh, CascAID (inhibition parameter for CascAID wt; best fit of the ODE model to editing data; marked not identifiable) | γ3 (inhibitor strength: fold-change relative to the inhibition rate of CascAID wt; best fit of the ODE model)
1 | AcrIIA4 D14A/G38A as the auto-inhibitory domain of CascAID D14A/G38A | 19 fold | 1.13 h⁻¹ | 0.0519 unitless | – | –
2 | wild-type AcrIIA4 as the auto-inhibitory domain of CascAID wt (Cas9 fused to wild-type AcrIIA4) | – | 1.13 h⁻¹ | – | 618 h⁻¹ | –
3 | AcrIIA4 N39A as the auto-inhibitory domain of CascAID N39A | 16 fold | 1.13 h⁻¹ | – | – | 0.0609 unitless
